Data as given in the supplement of paper PMC9732359.
± gives the uncertainty stated by the source.

Assay: protein stability index of a GFP-peptide fusion (yeast GPS) (PSI 1-4); higher = more stable; sorted into four equal gates, so the index is relative within each strain
Method in brief: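 Tiled 17-residue yeast protein peptides were fused downstream of GFP in a plasmid that also expresses Cherry, and the pooled library was carried in yeast. Mid-log cultures in leucine-free medium were sorted into four equal gates by GFP/Cherry fluorescence ratio, and plasmids from each gate were PCR-amplified and Illumina-sequenced, with reads assigned to strains by barcodes. The protein stability index for each peptide was each gate's read frequency times its gate number, summed.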

Sequence	protein stability index (doa10∆)	protein stability index (pdr5∆)	protein stability index (san1∆)	protein stability index (ubr1∆)
STFRLNLSVTSPYNADF [RPO21]	2.21 ± 0.05	2.34 ± 0.054	2.6 ± 0.075	2.93 ± 0.044
VSALQMLKQHLFKYQGH [PUP1]	2.55 ± 0.073	2.71 ± 0.076	2.65 ± 0.059	2.57 ± 0.05
VNQDKANNASQITPTVP [SNF12]	3.03 ± 0.083	3.19 ± 0.081	3.11 ± 0.063	3.18 ± 0.054
VQELLKVLNEISKTTLT [RPN3]	3.1 ± 0.15	3.29 ± 0.074	3.17 ± 0.055	3.39 ± 0.071
IQFGAKNMFEKKASKVT [ISW2]	2.66 ± 0.07	2.91 ± 0.072	2.68 ± 0.074	2.69 ± 0.11
EAEMAYVKAVSDKAQLN [SMC4]	2.62 ± 0.062	2.33 ± 0.052	2.2 ± 0.072	2.26 ± 0.05
YPEVVTPYNIDRLTQLV [RPO21]	2.56 ± 0.2			
KKLNKNKKLIKKLSKKY [RPL1A]	3.78 ± 0.21	3.43 ± 0.11	3.1 ± 0.12	3.52 ± 0.22
SAISVTNVEDPLAKKQT [SIR2]				3.2 ± 0.21
CIFGDAFDVDRAKSCGV [RPL1A]	3.01 ± 0.073	2.75 ± 0.084	2.57 ± 0.11	2.59 ± 0.081
GRQFCNRLSRIHLYMLT [YLR018C/POM34]	1.68 ± 0.051	1.87 ± 0.05	1.69 ± 0.1	1.8 ± 0.04
ILEESLNAIILKLEKLN [SMC3]	1.66 ± 0.061	1.72 ± 0.062	1.5 ± 0.14	2.24 ± 0.07
NPKYDTSNASMNTTLGS [YAR002W/NUP60]	3.12 ± 0.045	3.15 ± 0.044	3.12 ± 0.034	3.14 ± 0.047
MVTSNVVLVSGEGERFT [SKP1]	2.11 ± 0.14	2.56 ± 0.086	2.26 ± 0.12	1.73 ± 0.081
SNQERCHDEGNDMLQRN [RRI1]	3.33 ± 0.075	3.2 ± 0.11	3.35 ± 0.098	3.16 ± 0.076
LLNLPPFQVSSFVKETK [SRB8]	1.94 ± 0.039	1.88 ± 0.035	2.04 ± 0.05	2.02 ± 0.04
NLQPISTPENVPRLFDL [SMC4]	2.89 ± 0.11	2.93 ± 0.084	2.6 ± 0.12	2.48 ± 0.064
REKNSLESGKETALEFL [SMC4]	3.47 ± 0.17	3.17 ± 0.11	3.07 ± 0.086	3.63 ± 0.093
MPRAPRTYSKTYSTPKR [RPS9A]	2.3 ± 0.064	2.45 ± 0.069	2.68 ± 0.053	2.62 ± 0.054
ISHIEKRIESLQKDLQR [SMC1]	1.86 ± 0.065	2.48 ± 0.077	1.75 ± 0.09	1.85 ± 0.066
ANVPSTATTGKRKPAKS [RPN4]	2.64 ± 0.073	2.88 ± 0.082	2.64 ± 0.05	2.8 ± 0.05
ITYGIIKVPTYIRKLIS [SRB8]	1.32 ± 0.074	1.44 ± 0.091	1.42 ± 0.2	1.36 ± 0.085
GLSLAGLAPDARVLSNY [PRE5]	1.23 ± 0.098	1.58 ± 0.1	1.27 ± 0.24	1.13 ± 0.1
VKIMRDPAKSRTGPKAL [RPS3]	3.35 ± 0.21	3.33 ± 0.12	3.06 ± 0.1	3.52 ± 0.11
KRSGHRTAPKSDNVYLK [RPL18A]	2.85 ± 0.12	2.68 ± 0.095	2.69 ± 0.12	2.61 ± 0.077
DSSVEDSTDNENSGKEM [LIN1]	3.04 ± 0.041	3.24 ± 0.069	3.41 ± 0.081	2.99 ± 0.031
LTPNEIKELEHLHDAVF [SWP82]	2.95 ± 0.072	3.18 ± 0.075	3.13 ± 0.055	2.95 ± 0.052
